# Experimental data as given in patent US20250235501A1, “Methods and Compositions for Treating or Preventing Neurological Injury or Neurological Disorders” (University of Connecticut, priority 2024, published 2025).
# Tests used:
# [1] = target: T1, TRPM2 interaction with GluN2a (Rattus norvegicus, UniProt Q00959); experiment: Co-IP of TRPM2 with GluN2a in co-transfected HEK293T cells; assay type: cell-based, human; settings: 10 μM peptide overnight; IP anti-GluN2a, WB anti-Flag
# T1 construct: TRPM2 plasmid a gift 17928; 17924; 17925; host or cells: HEK293T
# T1 sequence (Q00959 23-1464, other chains not shown): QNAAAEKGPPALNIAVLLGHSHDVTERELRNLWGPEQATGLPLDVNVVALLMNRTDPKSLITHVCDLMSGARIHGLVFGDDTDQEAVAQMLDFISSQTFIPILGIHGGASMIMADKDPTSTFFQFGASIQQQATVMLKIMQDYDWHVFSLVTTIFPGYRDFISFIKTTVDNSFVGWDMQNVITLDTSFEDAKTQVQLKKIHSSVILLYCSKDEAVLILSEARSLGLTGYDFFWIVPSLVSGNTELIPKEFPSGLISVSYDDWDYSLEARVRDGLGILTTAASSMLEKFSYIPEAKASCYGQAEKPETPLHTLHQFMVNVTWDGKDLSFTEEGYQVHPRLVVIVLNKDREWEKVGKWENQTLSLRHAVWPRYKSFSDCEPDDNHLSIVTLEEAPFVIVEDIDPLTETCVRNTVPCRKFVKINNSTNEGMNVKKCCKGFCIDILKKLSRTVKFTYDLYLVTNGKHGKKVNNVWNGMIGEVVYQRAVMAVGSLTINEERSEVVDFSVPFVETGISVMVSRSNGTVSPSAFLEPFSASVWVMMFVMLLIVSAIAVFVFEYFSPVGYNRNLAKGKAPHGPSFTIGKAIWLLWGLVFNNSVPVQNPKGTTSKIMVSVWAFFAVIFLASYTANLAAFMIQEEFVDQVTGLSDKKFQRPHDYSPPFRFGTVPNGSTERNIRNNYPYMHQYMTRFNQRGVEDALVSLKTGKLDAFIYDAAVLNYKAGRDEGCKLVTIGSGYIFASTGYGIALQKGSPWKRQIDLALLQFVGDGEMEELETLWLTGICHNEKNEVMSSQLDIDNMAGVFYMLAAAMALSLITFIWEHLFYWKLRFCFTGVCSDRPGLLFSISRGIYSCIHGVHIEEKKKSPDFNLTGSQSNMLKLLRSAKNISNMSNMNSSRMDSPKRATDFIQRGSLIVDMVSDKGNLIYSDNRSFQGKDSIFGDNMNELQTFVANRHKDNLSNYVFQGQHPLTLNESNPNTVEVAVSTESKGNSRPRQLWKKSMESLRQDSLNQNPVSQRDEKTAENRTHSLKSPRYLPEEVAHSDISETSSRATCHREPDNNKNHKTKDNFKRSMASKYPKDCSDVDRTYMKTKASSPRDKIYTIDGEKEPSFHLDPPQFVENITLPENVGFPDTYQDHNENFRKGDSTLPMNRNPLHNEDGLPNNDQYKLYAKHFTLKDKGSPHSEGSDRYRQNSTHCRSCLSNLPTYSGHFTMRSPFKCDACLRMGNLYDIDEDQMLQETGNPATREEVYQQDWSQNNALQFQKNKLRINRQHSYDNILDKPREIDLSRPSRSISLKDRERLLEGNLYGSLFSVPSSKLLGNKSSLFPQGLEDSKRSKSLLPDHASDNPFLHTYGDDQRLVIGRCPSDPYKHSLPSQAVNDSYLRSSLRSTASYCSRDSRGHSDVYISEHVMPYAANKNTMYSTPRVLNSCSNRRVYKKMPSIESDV
# Protocol: FIGS. 5A and 5B show the effects of TAT-EE3 on interaction of TRPM2 and NMDARs. Co-IP tests of NMDARs with WT or EE3 domain mutants of TRPM2 (Flag-tagged) in co-transfected HEK293T cells. WT TRPM2 groups were treated with 10 μM TAT-SC or TAT-EE3 overnight. Lysates were IP's with anti-GluN2a (FIG. 5A) or anti-GluN2b (FIG. 5B), and probed by WBs with anti-Flag. IgG was used as control for IP. Similar to the mutants TRPM2-ΔEE3 and TRPM2-EQE, TAT-EE3 disrupted TRPM2 interaction with GluN2a and GluN2b.
# were ordered from GenScript Biotech, and dissolved in PBS to make a stock concentration at 10 mM. HEK-293T cells or isolated neurons were treated with TAT-SC or TAT-EE3 at a concentration of 10 μM for at least 8 h prior to use. Mice were injected with TAT-SC or TAT-EE3 intraperitoneally (ip) at a dose of 100 nmol/kg. […]
# NP-40 lysis buffer ([…], 150 mM NaCl, 1 mM EDTA, 50 mM Tris, pH=8.0) containing proteinase inhibitors (Sigma-Aldrich, 539131-10VL) and phosphatase inhibitors (Thermal Fisher Scientific, 78428) was used to lyse both cultured cells and frozen brain tissue. […] Protein concentration was measured using Pierce™ Rapid Gold BCA Protein Assay Kit (Thermal Fisher Scientific, A53225). […] Then samples were ready for western blotting analysis.
# [2] = tested on: NMDARs (GluN1a, GluN2a, GluN2b); experiment: Surface expression of NMDARs in HEK293T cells co-transfected with NMDARs and TRPM2 (WB); assay type: cell-based, human; settings: 10 μM peptide overnight; NMDARs/TRPM2 vs NMDARs/EGFP
# Protocol: FIGS. 4K-4N show the surface expression of NMDARs in HEK-293T cells co-transfected with TRPM2 or EGFP with the treatment of PKC activator PMA (FIG. 4K) and inhibitor Stausporine (FIG. 4L). Membrane (Mem) and cytocol (Cyto) NMDARs were analyzed and averaged from 3 independent experiments with 1 μM PMA treatment (FIG. 4N) or 1 μM Stausporine treatment (FIG. 4L) for overnight. Pan-cadherin and β-tubulin were loading controls for membrane and cytosol protein, respectively (*, p<0.05, **, p<0.01, ***, p<0.001, unpaired t-test, mean±SEM, n=3/group).
# FIGS. 5C-5F effects of TAT-EE3 on surface expression of NMDARs. HEK293T cells co-transfected with NMDARs with TRPM2 (+M2) or EGFP vector (Con) were treated with 10 μM TAT-SC (FIG. 5C) or TAT-EE3 (FIG. 5D) overnight. Membrane (Mem) and cytosol (Cyto) proteins of NMDARs in TAT-SC (FIG. 5E) and TAT-EE3 (FIG. 5F) treated groups were assessed by WBs and analyzed in reference to Pan-cadherin or β-tubulin (**, p<0.01, ***, p<0.001, unpaired t-test, mean±SEM). All the results were replicated in at least 3 independent experiments.
# Pan-cadherin and β-tubulin were used as loading control for membrane and cytosolic protein extraction.
# were ordered from GenScript Biotech, and dissolved in PBS to make a stock concentration at 10 mM. HEK-293T cells or isolated neurons were treated with TAT-SC or TAT-EE3 at a concentration of 10 μM for at least 8 h prior to use. Mice were injected with TAT-SC or TAT-EE3 intraperitoneally (ip) at a dose of 100 nmol/kg.
# HEK293T cells were cultured in Dulbecco's Modified Eagle's medium (DMEM) (Thermal Fisher Scientific, 12100-038) supplemented with 10% BGS (HyClone, SH30541.03) and 0.5% penicillin/streptomycin (Thermal Fisher Scientific, 15140-122) at 37° C. and 5% CO2. 8 h prior to transfection, culture medium was replaced with DMEM supplemented only with 2.5% BGS. Cells were transfected when at a confluence about 80-90% using Lipofectamine® 3000 Transfection Kit (Thermal Fisher Scientific, 2232162) based on instruction.
# NP-40/Triton lysis buffer ([…], 1% Triton™ X-100, 150 mM NaCl, 1 mM EDTA, 50 mM Tris, pH=8.0) containing proteinase inhibitors and phosphatase inhibitors was used to lyse both cultured cells and frozen brain tissue. Surface protein was extracted using Pierce® Cell Surface Protein Isolation Kit (Thermal Fisher Scientific, 89881) in transfected HEK-293T cells, and using ProteoExtract™ Native Membrane Protein Extraction Kit (Calbiochem, 444810) in brain tissue based on instructions. […] Protein concentration was measured using Pierce™ Rapid Gold BCA Protein Assay Kit.
# 30-50 μg of total protein was loaded and separated proteins were transferred to Nitrocellulose membranes. […] Band intensity was quantified using ImageJ software and normalized with appropriate loading controls.
substance,measurement,setting,value
"TAT-EE3: membrane permeable disrupting peptide, sequence YGRKKRRQRRREEDTDSSEEMLALAEE (SEQ ID NO: 4)",interaction of TRPM2 with GluN2a (co-IP),[1],completely disrupted
same,enhancement of NMDAR surface expression by TRPM2,[2],eliminated the enhancement
